{"source": "paper PMC11574045", "about": "“A cofactor-induced repressive type of transcription factor condensation can be induced by synthetic peptides to suppress tumorigenesis” (The EMBO Journal, 2024)", "molecules": {"B1": {"name": "ZNF550 (protein, UniProt Q7Z398 1-422, looked up)", "Zinc finger protein 550": "MAETKDAAQMLVTFKDVAVTFTREEWRQLDLAQRTLYREVMLETCGLLVSLGHRVPKPELVHLLEHGQELWIVKRGLSHATCAGDRAQVHTREPTTYPPVLSERAFLRGSLTLESSTSSDSRLGRARDEEGLLEMQKGKVTPETDLHKETHLGKVSLEGEGLGTDDGLHSRALQEWLSADVLHECDSQQPGKDALIHAGTNPYKCKQCGKGFNRKWYLVRHQRVHTGMKPYECNACGKAFSQSSTLIRHYLIHTGEKPYKCLECGKAFKRRSYLMQHHPIHTGEKPYECSQCRKAFTHRSTFIRHNRTHTGEKPFECKECEKAFSNRAHLIQHYIIHTGEKPYDCMACGKAFRCSSELIQHQRIHTGEKPYECTQCGKAFHRSTYLIQHSVIHTGEMPYKCIECGKAFKRRSHLLQHQRVHT"}, "B2": {"name": "ZNF563 (protein, UniProt Q8TA94 1-476, looked up)", "Zinc finger protein 563": "MDAVAFEDVAVNFTQEEWALLGPSQKNLYRYVMQETIRNLDCIRMIWEEQNTEDQYKNPRRNLRCHMVERFSESKDSSQCGETFSLIRDSIVNNSICPGEDPCQSAECEEVIMGHLSLNSHIRVDSGHKPHEYQEYGEKPHTHKQRGKAFSYHHSFQSRGRPHTGKKRYECKECGKTFSSRRNLRRHMVVQGGNRPYKCKLCGKAFFWPSLLRMHERTHTGEKPYECKQCSKAFPFYSSYRRHERMHTGEKPYECKQCSKALPDSSSYIRHERTHTGEKPYTCKQCGKAFSVSSSLRRHETTHSAEKPYECKQCGKTFHHLGSFQIHMKRHTGDRPHKCKICGKGFDRPSLVRYHERIHTGEKPYECKQCGKTLSHSSSFRRHMIMHTGGGPHKCKICGKAFVYPSVCQRHEKSHSGEKPYECKQCGKALSHSSSFRRHMVMHTGDGPNKCKVCGKAFVYPSVCQRHEKTHWRETI"}, "B3": {"name": "ZNF555 (protein, UniProt Q8NEP9 1-628, looked up)", "Zinc finger protein 555": "MDSVVFEDVAVDFTLEEWALLDSAQRDLYRDVMLETFQNLASVDDETQFKASGSVSQQDIYGEKIPKESKIATFTRNVSWASVLGKIWDSLSIEDQTTNQGRNLSRNHGLERLCESNDQCGEALSQIPHLNLYKKIPPGVKQYEYNTYGKVFMHRRTSLKSPITVHTGHKPYQCQECGQAYSCRSHLRMHVRTHNGERPYVCKLCGKTFPRTSSLNRHVRIHTAEKTYECKQCGKAFIDFSSLTSHLRSHTGEKPYKCKECGKAFSYSSTFRRHTITHTGEKPYKCKECAEAFSYSSTFRRHMISHTGEKPHKCKECGEAFSYSSAFRRHMITHTGEKPYECKQCGKTFIYLQSFRRHERIHTGEKPYECKQCGKTFIYPQSFRRHERTHGGEKPYECNQCGKAFSHPSSFRGHMRVHTGEKPYECKQCGKTFNWPISLRKHMRTHTREKPYECKQCGKAFSLSACFREHVRMHPEDKSYECKLCGKAFYCHISLQKHMRRHTAEKLYKCKQCGKAFSWPELLQQHVRTHTVEKPYECKECGKVFKWPSSLPIHMRLHTGEKPYQCKHCGKAFNCSSSLRRHVRIHTTEKQYKCNVGHPPANEFMCSASEKSHQERDLIKVVNMVLPL"}, "B4": {"name": "ZNF567 (protein, UniProt Q8N184 1-647, looked up)", "Zinc finger protein 567": "MAQGSVSFNDVTVDFTQEEWQHLDHAQKTLYMDVMLENYCHLISVGCHMTKPDVILKLERGEEPWTSFAGHTCLEENWKAEDFLVKFKEHQEKYSRSVVSINHKKLVKEKSKIYEKTFTLGKNPVNSKNLPPEYDTHGRILKNVSELIISNLNPARKRLSEYNGYGKSLLSTKQETTHPEVKSHNQSARAFSHNEVLMQYQKTETPAQSFGYNDCEKSFLQRGGLITHSRPYKGENPSVYNKKRRATNIEKKHTCNECGKSFCRKSVLILHQGIHSEEKPYQCHQCGNAFRRKSYLIDHQRTHTGEKPFVCNECGKSFRLKTALTDHQRTHTGEKSYECLQCRNAFRLKSHLIRHQRTHTGEKPYECNDCGKSFRQKTTLSLHQRIHTGEKPYICKECGKSFHQKANLTVHQRTHTGEKPYICNECGKSFSQKTTLALHEKTHNEEKPYICSECGKSFRQKTTLVAHQRTHTGEKSYECPHCGKAFRMKSYLIDHHRTHTGEKPYECNECGKSFSQKTNLNLHQRIHTGEKPYVCNECGKSFRQKATLTVHQKIHTGQKSYECPQCGKAFSRKSYLIHHQRTHTGEKPYKCSECGKCFRQKTNLIVHQRTHTGEKPYVCNECGKSFSYKRNLIVHQRTHKGENIEMQ"}}, "system": "HEK293FT cells transfected with TF library", "experiment": "Screening of TF condensates based on fluorescent puncta", "format": "cell-based", "conditions": "Figure 1B numerical data; TF library screen, one value per transcriptional factor", "method_in_brief": "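Puncta scoring used automated confocal imaging of fifty random fields per well, after anti-Flag or anti-GAL4 immunofluorescence (Alexa 488) in PFA-fixed cells. HEK293FT cells carried TF library plasmids delivered with PEI (1.6 μg/ml DNA). At 60 h they were switched for 12 h to glucose-containing or glucose-free medium.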", "data": [{"molecule": "B1", "values": [{"measurement": "Z score of condensed fraction", "value": -0.5599}]}, {"molecule": "B2", "values": [{"measurement": "Z score of condensed fraction", "value": -0.4635}]}, {"molecule": "B3", "values": [{"measurement": "Z score of condensed fraction", "value": -0.894}]}, {"molecule": "B4", "values": [{"measurement": "Z score of condensed fraction", "value": -0.7114}]}]}
